Reference: paper PMC6322584

Target: VvWRKY8-mVenus (Vitis vinifera)
Experiment: FRET or BRET; FRET with acceptor photobleaching; VvMYB14-mTRQ2 (donor) and VvWRKY8-mVenus (acceptor) from one pFRETtv-2in1-NN vector in agro-infiltrated tobacco leaves, 3 d after infiltration; bleaching with the 488-nm laser at 100% intensity, 15 frames

FRET efficiency: 38.5%
Substance: VvMYB14-mTRQ2 (natural protein)
